This note sets out measurements from PMC10250219.

Read-outs that look alike come from different tables or passages of the source.

What all share (assay): EMSA
A general note: In EMSA bound probe runs differently from free probe, usually more slowly.

For data set [1], the target named is T1, OGG1 WT (untagged) (human, UniProt O15527 1-345).
In a further data set the target is OGG1-Y203A (untagged) (human, UniProt O15527 1-345, Y203A).
Data set [2] addresses T2, OGG1-2NA (untagged) (human, UniProt O15527 1-345, N149A;N150A).
In data set [3] the target is T1, OGG1 WT (untagged). This is another data set of the same source.
The target in data set [4] is T2, OGG1-2NA (untagged). The source holds these as a separate data set.
The target of the next data set is GST-OGG1-G245A (human, UniProt O15527 1-345, G245A).
GST-OGG1-G245A, sequence (O15527 whole entry G245A): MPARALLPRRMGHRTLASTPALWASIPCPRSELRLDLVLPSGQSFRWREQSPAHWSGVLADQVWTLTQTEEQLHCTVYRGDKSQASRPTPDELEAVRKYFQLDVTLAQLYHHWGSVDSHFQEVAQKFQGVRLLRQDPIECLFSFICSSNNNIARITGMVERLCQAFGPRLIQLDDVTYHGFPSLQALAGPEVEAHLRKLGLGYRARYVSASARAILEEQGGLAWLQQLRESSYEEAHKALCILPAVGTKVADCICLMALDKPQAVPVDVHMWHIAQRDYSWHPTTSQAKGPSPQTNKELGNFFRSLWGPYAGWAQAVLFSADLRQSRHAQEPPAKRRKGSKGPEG

T2 sequence (O15527 whole entry N149A/N150A): as the sequence (O15527 whole entry G245A) above, with N149A, N150A, A245G counted along it
T1 sequence (O15527 whole entry): as the sequence (O15527 whole entry G245A) above, with A245G counted along it
OGG1-Y203A (untagged), sequence (O15527 whole entry Y203A): as the sequence (O15527 whole entry G245A) above, with Y203A, A245G counted along it

B1: 24-mer G:C duplex (dsDNA)
DNA 1: CTGATCGATGACGCCTGACATGAT
DNA 2: ATCATGTCAGGCGTCATCGATCAG
As to B1, the dissociation constant Kd (commonly the constant that tells how readily two partners part at equilibrium) was 2220 ± 220 nM with OGG1 WT (untagged) [1], 1970 ± 270 nM with OGG1-Y203A (untagged) and 602 ± 42 nM with OGG1-2NA (untagged) [2].

B2: 24-mer 8-oxoG:C duplex (dsDNA)
DNA 1: CTGATCGATGACGCCTGACATGAT
DNA 2: ATCATGTCAGGCGTCATCGATCAG
modifications: 8-oxoG at position 13 of strand 1 (opposite C)
Turning to B2, the Kd stood at 0.42 ± 0.03 nM with OGG1 WT (untagged) [3] and 6.37 ± 0.58 nM with OGG1-2NA (untagged) [4].

B3: Cy5 34-mer 8-oxoG:C duplex (dsDNA)
DNA 1: GGCTTCATCGTTGTCGCAGACCTGGTGGATACCG
DNA 2: CGGTATCCACCAGGTCTGCGACAACGATGAAGCC
modifications: 8-oxoG at position 16 of strand 1 (opposite C)
With B3, the binding result with GST-OGG1-G245A is “no binding”.

B4: Cy5 34-mer G:C duplex (dsDNA)
DNA 1: B3 DNA 1
DNA 2: B3 DNA 2
Consider B4, for which the binding result with GST-OGG1-G245A is reported as “no binding”.
